This passage reports oligomeric state (subunits per complex) and Kd results from publication PMC8699970.

Test [1] has as its target AjNLRC4 (native, on coelomocytes) (Apostichopus japonicus (endogenous in coelomocytes)). The experiment in a line: cross-linking; sea cucumbers injected with V. splendidus for 30 min; coelomocytes treated with BS3 (5 mM, 4°C, 1 h); SDS-PAGE and western blotting with anti-AjNLRC4 antibodies. Background: A western blot detects proteins with antibodies after separation by electrophoresis.

For test [2], the target named is GST-tagged AjNLRC4-IN (intracellular fragment of AjNLRC4 with the NACHT domain) (Apostichopus japonicus). The experiment in a line: MST; Monolith NT; labeled GST-AjNLRC4-IN (10 μM) constant, a range of concentrations of His-β-Actin; 50 mM Tris-HCl pH 7.8, 150 mM NaCl, 10 mM MgCl2, 0.05% Tween-20; 10 min incubation; 20% LED power, 80% MST power.

pKd: −log10 of the molar value.

In turn, “AjNLRC4 (native, on coelomocytes) (receptor)” yielded an oligomeric state (subunits per complex) in test [1] of 2.
In test [2], His-tagged Ajβ-actin (natural protein) had a pKd of 5.23.

In general, pKd refers to −log10 of the Kd, conventionally taken in molar units. High values mean a low Kd, low ones a high Kd.
